For assay [1], the target named is T1, human CD228 on the cell surface (RPMI-7951 cells stably expressing human CD228; A375 cells) (human, UniProt P08582 20-709).
T1 construct: whole, on cells; also called p97; melanotransferrin
T1 sequence (looked up): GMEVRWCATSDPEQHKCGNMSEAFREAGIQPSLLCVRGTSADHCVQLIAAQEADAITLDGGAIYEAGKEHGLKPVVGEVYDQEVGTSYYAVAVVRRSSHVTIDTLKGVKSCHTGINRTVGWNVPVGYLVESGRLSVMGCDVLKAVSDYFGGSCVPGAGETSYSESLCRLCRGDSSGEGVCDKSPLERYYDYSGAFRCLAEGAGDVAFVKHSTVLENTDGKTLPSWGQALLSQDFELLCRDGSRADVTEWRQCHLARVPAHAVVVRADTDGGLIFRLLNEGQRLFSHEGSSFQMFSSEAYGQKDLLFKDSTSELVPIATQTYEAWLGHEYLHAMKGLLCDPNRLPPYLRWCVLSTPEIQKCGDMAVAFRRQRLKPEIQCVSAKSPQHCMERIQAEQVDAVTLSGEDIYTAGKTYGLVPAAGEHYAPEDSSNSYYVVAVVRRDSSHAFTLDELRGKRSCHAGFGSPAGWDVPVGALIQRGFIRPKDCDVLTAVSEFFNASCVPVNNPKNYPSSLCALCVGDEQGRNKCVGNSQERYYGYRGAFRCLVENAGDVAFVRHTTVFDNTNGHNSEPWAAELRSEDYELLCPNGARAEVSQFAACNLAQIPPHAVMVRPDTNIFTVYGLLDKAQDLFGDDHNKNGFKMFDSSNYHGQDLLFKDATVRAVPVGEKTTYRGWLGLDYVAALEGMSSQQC
In words: saturation binding by flow cytometry, RPMI-7951 cells stably expressing human CD228; PE anti-human IgG secondary; row 'ug/mL' of the drawn table headed 'kD'. The method, then: (§1) The KD for each resulting antibody was then determined by a saturation binding assay. Briefly, 1×10⁵ RPMI-7951 cells stably expressing human CD228 were aliquoted per well of a 96-well v-bottom plates. Each CD228 antibody was added in concentrations ranging from 0.05 pM to 340 nM and incubated on ice for 60 minutes. Cells were pelleted and washed 3× with PBS/BSA followed by addition of 10 ug/ml of a PE labeled anti-human IgG goat secondary antibody and incubated on ice for an additional 60 minutes. Cells were pelleted and washed 3× with PBS/BSA and resuspended in 125 μL of PBS/BSA. Fluorescence was analyzed by flow cytometry, using percent of saturated fluorescent signal to determine percent bound and to subsequently calculate apparent KD. The binding curves for recombinant human anti-CD228 antibodies are shown in FIG. 13 and the KD for cL49ec (chimeric LA9 with an S239C mutation in the […] constant region), hL49 HALA G1, hL49 HALB G1, and hL49 HALC G1 are shown in Table 8. The antibody called “HALC,” “hL49,” or “hL49-HALC” which comprises heavy chain “HA” and the light chain “LC” was selected for use in all other experiments.
(In general: A flow cytometer gives signals particle by particle.)

Assay [2] deals with T2, human CD228 (R&D Systems Custom02; Lot DCWR021505A) (human, UniProt P08582 20-709, limits assumed).
T2 sequence (looked up): T1 sequence (looked up)
In words: ELISA on plate-coated human CD228, pH 7.1. The method, then:
(§2) The ability of various anti-CD228 ADCs to bind to CD228 was evaluated at pH values ranging from 4 to 7.5 using a standard ELISA protocol. Briefly, 100 ng of human CD228 (R&D Systems Custom02; Lot DCWR021505A) or BSA (Sigma; Catalog No. A7030-100G) were diluted in PBS and added to each well overnight at 4° C. Plates were then washed three times with PBS-T (EMD Millipore; Catalog No. 5246531EA). After washing, plates were blocked with 3% (w/v) BSA in PBS-T for 1 hour at room temperature. Excess blocking buffer was then removed and the primary antibody was added in 3-fold dilutions in diluent buffer (0.15M citrate-phosphate buffer pH 4.0-7.5) starting at an antibody concentration of 60 nM. After incubating for 1 hour at room temperature, the plates were washed 3 times and then incubated with secondary antibody (Goat anti-human IgG Fc-specific HRP-conjugated, Jackson ImmunoResearch code #109-035-098) in PBS-T with 1% BSA. After incubating for 30 minutes at room temperature, plates were washed 3 times. 100 μl TMB substrate (Life Technologies; Cat #002023) was then added to each well. After incubating 10 minutes at room temperature, 100 μl H2SO4 was added to each well to stop the reaction, plates were covered with clear plate seal and read on an Envision at […]. pH-dependent binding for hL49, cL235, CD228Ab1, CD228Ab2 and CD228Ab3, CD228Ab4 are shown in FIG. 34A-34F.
For orientation: ELISA stands for enzyme-linked immunosorbent assay.

The target in assay [3] is T2, human CD228 (R&D Systems Custom02; Lot …). The assay can be described thus: ELISA on plate-coated human CD228, pH 5.9. The method, then:
as §2

Assay [4] addresses T1, human CD228 on the cell surface …. The assay can be described thus: saturation binding by flow cytometry on RPMI-7951 cells stably expressing human CD228; apparent KD. The protocol: as §1
Assay [5] has as its target T2, human CD228 (R&D Systems Custom02; Lot …). In words: ELISA on plate-coated human CD228, pH 7.5. The method, then: as §2
Assay [6] shares this target. The assay can be described thus: ELISA on plate-coated human CD228, pH 6.3. The method, then:
as §2

For assay [7] the target is unchanged. The assay can be described thus: ELISA on plate-coated human CD228, pH 7.4. The protocol:
as §2

Assay [8] shares this target. The assay can be described thus: ELISA on plate-coated human CD228, pH 6.66. The method, then: as §2
Assay [9] has the same target. The assay can be described thus: ELISA on plate-coated human CD228, pH 5.6. The method, then: as §2

In general, EC50 refers to the concentration needed to bring the measured effect to its halfway point. Lower therefore signals greater potency.

B1: hL49 HALC G1 (antibody, human IgG1, kappa, V domains shown)
VH: QVQLQESGPGLVKPSETLSLTCTVSGDSITSGYWNWIRQPPGKGLEYIGYISDSGITYYNPSLKSRVTISRDTSKNQYSLKLSSVTAADTAVYYCARRTLATYYAMDYWGQGTLVTVSS
VL: DFVMTQSPLSLPVTLGQPASISCRASQSLVHSDGNTYLHWYQQRPGQSPRLLIYRVSNRFSGVPDRFSGSGSGTDFTLKISRVEAEDVGVYYCSQSTHVPPTFGQGTKLEIKT
notes: Humanized L49, IgG1 kappa
As for B1, the Kd in assay [1] is 0.6 µg/mL; in assay [4] it was 4 nM. The 50% effective concentration (EC50) amounted to 1.1 nM in assay [2]; 5.31 nM in [3]; 1.18 nM in [5]; 2.96 nM in [6]; 0.856 nM in assay [7]; 1.54 nM in assay [8]. The molecule further returned a 50% effective concentration (EC50) in assay [9] of 21.8 nM.

The values above are taken from patent US20240409658A1 (Seagen, published 2024).
